Source: patent US20150344570A1 (published 2015)
Like-named read-outs stand apart in the source and are kept apart here.

T1: FcgRIIaH (human, UniProt P12318 34-217)
T1 construct: extracellular domain; Soluble extracellular domain with C-terminal His tag, expressed in FreeStyle293 cells; also called FcγRIIa H; FcgRIIa type H; not shown: His tag at the C terminus
T1 sequence (looked up): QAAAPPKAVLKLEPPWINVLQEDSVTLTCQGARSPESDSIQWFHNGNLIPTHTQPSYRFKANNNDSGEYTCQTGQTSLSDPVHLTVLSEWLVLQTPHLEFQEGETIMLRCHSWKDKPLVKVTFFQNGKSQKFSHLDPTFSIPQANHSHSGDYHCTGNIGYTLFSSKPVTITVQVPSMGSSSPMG

T2: FcgRIIb (human, UniProt P31994 43-217)
T2 construct: extracellular domain; Soluble extracellular domain with C-terminal His tag, expressed in FreeStyle293 cells; also called FcγRIIb; 2b; not shown: His tag at the C terminus
T2 sequence (looked up): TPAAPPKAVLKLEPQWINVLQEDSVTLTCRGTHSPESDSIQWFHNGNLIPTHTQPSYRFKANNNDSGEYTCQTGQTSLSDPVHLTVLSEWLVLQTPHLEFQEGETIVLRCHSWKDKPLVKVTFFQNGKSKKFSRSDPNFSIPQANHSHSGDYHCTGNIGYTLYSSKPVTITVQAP

T3: FcgRIIaR (human, UniProt P12318 34-217)
T3 construct: extracellular domain; Soluble extracellular domain with C-terminal His tag, expressed in FreeStyle293 cells; also called FcγRIIa R; FcgRIIa type R; not shown: His tag at the C terminus
T3 sequence (looked up): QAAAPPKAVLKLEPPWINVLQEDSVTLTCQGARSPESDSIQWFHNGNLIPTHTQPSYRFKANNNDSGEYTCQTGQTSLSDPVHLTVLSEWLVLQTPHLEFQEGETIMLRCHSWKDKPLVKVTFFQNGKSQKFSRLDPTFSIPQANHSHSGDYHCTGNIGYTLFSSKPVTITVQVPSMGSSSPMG


Assays:
FcγRIIIa [1] = target: T4, FcγRIIIa (human, UniProt P08637 17-208); assay: ratio of SPR KDs: KD of GpH7-G1d/GpL16-k0 divided by KD of this antibody
T4 construct: extracellular domain; also called FcgRIIIa; CD16A; not shown: His tag attached to the C terminus
Procedure, shortened: (§1)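 Biacore SPR at 25 °C in HBS-EP+; antibodies captured on antigen peptide-immobilized CM5 or SA chips, FcγRIIIa flowed as analyte, regeneration with 10 mM glycine-HCl pH 1.5. KD from ka and kd by global 1:1 Langmuir fitting; values are the reference antibody's KD divided by this antibody's KD.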

FcγRIIIa [2] = target: T4, FcγRIIIa; assay: ratio of SPR KDs: KD of GpH7-A5/GpH7-B3/GpL16-k0 divided by KD of this antibody
Procedure, shortened: as §1

FcγRIIIa [3] = target: T4, FcγRIIIa; assay: ratio of SPR KDs: KD of GpH7-TA7/GpH7-B78/GpL16-k0 divided by KD of this antibody
Experimental: (§2) Analysis of interaction between objective antibody and the FcγR was carried out using Biacore T100 (GE Healthcare). HBS-EP+ (GE Healthcare) was used as the running buffer, and the measurement temperature was set to 25° C. Chips produced by immobilizing the antigen peptide by the amine coupling method to a Series S Sencor Chip CM5 (GE Healthcare), or alternatively, chips produced by allowing preliminarily biotinylated antigen peptides to interact with and immobilize onto a Series S Sensor Chip SA (certified) (GE Healthcare) were used. Antibodies of interest were captured onto an antigen peptide-immobilized chip, and allowed to interact to each FcγR diluted with running buffer. To regenerate and repeatedly use the chip, the antibodies captured on the chip were washed off by reacting 10 mM glycine-HCl, pH 1.5.
Specifically, to calculate association rate constant ka (L/mol/s) and dissociation rate constant kd (1/s), sensorgrams obtained by measurement were processed for global fitting by Biacore Evaluation Software using 1:1 Langmuir binding model and dissociation constant KD (mol/1) was calculated from the resulting values.

FcγRIIIa [4] = target: T4, FcγRIIIa; assay: as above; remark: listed apart in the source
Excerpt: First, it was considered which H chain should be introduced with Y296W. GpH7-TA52 (SEQ ID NO: 44) resulting from the introduction of the mutation Y296W into GpH7-TA7 was constructed, and expressed and prepared in combination with GpH7-B78 according to the method described in Reference Example 1. Furthermore, GpH7-TA58 (SEQ ID NO: 45) resulting from the introduction of Y296W into GpH7-B78 was constructed, and expressed and prepared in combination with GpH7-TA22 according to the method described in Reference Example 1. To assess the effects of combinations with Y296W, the prepared antibodies were compared for the FcγRIIIa-binding activity according to the method described in Reference Example 2 (Table 16).
as §2

FcgRIIaH = target: T1, FcgRIIaH; assay: SPR (Biacore), antibody captured on chip, FcgR extracellular domain as analyte
FcgRIIb [5] = target: T2, FcgRIIb; assay: as above
FcgRIIaR = target: T3, FcgRIIaR; assay: as above
FcgRIIb [6] = target: T2, FcgRIIb; assay: SPR (Biacore); KD of the variant for FcgRIIaR divided by its KD for FcgRIIb

T4 sequence (P08637 17-208): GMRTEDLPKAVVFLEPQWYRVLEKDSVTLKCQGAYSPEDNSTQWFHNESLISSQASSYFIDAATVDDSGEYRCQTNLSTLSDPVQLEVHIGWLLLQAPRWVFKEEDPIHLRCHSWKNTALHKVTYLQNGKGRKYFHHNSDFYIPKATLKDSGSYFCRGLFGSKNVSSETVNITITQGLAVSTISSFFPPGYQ

Binder | KD ratio 1 (FcγRIIIa [1]) [fold] | KD ratio 2 (FcγRIIIa [2]) [fold] | KD ratio (FcγRIIIa [3]) [fold] | KD ratio (FcγRIIIa [4]) [fold] | Relative KD (KD of IL6R-B3/IL6R-L divided by KD of the variant) (FcgRIIaH) | Relative KD (KD of IL6R-B3/IL6R-L divided by KD of the variant) (FcgRIIb [5]) | Relative KD (KD of IL6R-B3/IL6R-L divided by KD of the variant) (FcgRIIaR) | KD(IIaR)/KD(IIb) (FcgRIIb [6])
GpH7-TA7/GpH7-B78/GpL16-k0 (antibody, human IgG1, kappa, Anti-glypican-3 IgG1 heterodimer; L234Y/G236W/S298A in H1, S239D/A330L/I332E in H2) heavy 1: QVQLVQSGAEVKKPGASVTVSCKASGYTFTDYEMHWIRQPPGEGLEWIGAIDPKTGDTAYSESFQDRVTLTADKSTSTAYMELSSLTSEDTAVYYCTRFYSYTYWGQGTLVTVSSASTKGPSVFPLAPSSKSTSGGTAALGCLVKDYFPEPVTVSWNSGALTSGVHTFPAVLQSSGLYSLSSVVTVPSSSLGTQTYICNVNHKPSNTKVDKKVEPKSCDKTHTCPPCPAPEYLWGPSVFLFPPKPKDTLMISRTPEVTCVVVDVSHEDPEVKFNWYVDGVEVHNAKTKPREEQYNATYRVVSVLTVLHQDWLNGKEYKCKVSNKALPAPIEKTISKAKGQPREPQVYTLPPSRKELTKNQVSLTCLVKGFYPSDIAVEWESNGQPENNYKTTPPVLDSDGSFFLYSKLTVDKSRWQQGNVFSCSVMHEALHNRYTQKSLSLSP heavy 2: QVQLVQSGAEVKKPGASVTVSCKASGYTFTDYEMHWIRQPPGEGLEWIGAIDPKTGDTAYSESFQDRVTLTADKSTSTAYMELSSLTSEDTAVYYCTRFYSYTYWGQGTLVTVSSASTKGPSVFPLAPSSKSTSGGTAALGCLVKDYFPEPVTVSWNSGALTSGVHTFPAVLQSSGLYSLSSVVTVPSSSLGTQTYICNVNHKPSNTKVDKKVEPKSCDKTHTCPPCPAPELLGGPDVFLFPPKPKDTLMISRTPEVTCVVVDVSHEDPEVKFNWYVDGVEVHNAKTKPREEQYNSTYRVVSVLTVLHQDWLNGKEYKCKVSNKALPLPEEKTISKAKGQPREPQVYTLPPSRDELTKNQVSLTCLVKGFYPSDIAVEWESNGQPENNYKTTPPVLDSDGSFFLYSKLTVDKSRWQQGNVFSCSVMHEALHNHYTQESLSLSP light: DIVMTQSPLSLPVTPGEPASISCQASESLVHSNRNTYLHWYLQKPGQSPQLLIYKVSNRFSGVPDRFSGSGSGTDFTLKISRVEAEDVGVYYCSQNTHVPPTFGQGTKVEIERTVAAPSVFIFPPSDEQLKSGTASVVCLLNNFYPREAKVQWKVDNALQSGNSQESVTEQDSKDSTYSLSSTLTLSKADYEKHKVYACEVTHQGLSSPVTKSFNRGEC | 261 | 347 | 1 | 1 |  |  |  | 
IL6R-BP253/IL6R-L (antibody, human IgG1, kappa, Homodimerized antibody) heavy: QVQLQESGPGLVKPSETLSLTCAVSGHSISHDHAWSWVRQPPGEGLEWIGFISYSGITNYNPSLQGRVTISRDNSKNTLYLQMNSLRAEDTAVYYCARSLARTTAMDYWGEGTLVTVSSASTKGPSVFPLAPSSKSTSGGTAALGCLVKDYFPEPVTVSWNSGALTSGVHTFPAVLQSSGLYSLSSVVTVPSSSLGTQTYICNVNHKPSNTKVDKKVEPKSCDKTHTCPPCPAPELLGGPSVFLFPPKPKDTLMISRTPEVTCVVVDVEHEDPEVKFNWYVDGVEVHNAKTKPREEQYNSTYRVVSVLTVLHQDWLNGKEYKCKVSNKAFPAPIEKTISKAKGQPREPQVYTLPPSRDELTKNQVSLTCLVKGFYPSDIAVEWESNGQPENNYKTTPPVLDSDGSFFLYSKLTVDKSRWQQGNVFSCSVMHEALHNHYTQESLSLSP light: not shown |  |  |  |  | 0.9 | 349 | 480 | 0.3
IL6R-AP002/IL6R-BP256/IL6R-L (antibody, human IgG1, kappa, Heterodimerized antibody (two different H chains, same variable region), S239D in one H chain only) heavy 1: QVQLQESGPGLVKPSETLSLTCAVSGHSISHDHAWSWVRQPPGEGLEWIGFISYSGITNYNPSLQGRVTISRDNSKNTLYLQMNSLRAEDTAVYYCARSLARTTAMDYWGEGTLVTVSSASTKGPSVFPLAPSSKSTSGGTAALGCLVKDYFPEPVTVSWNSGALTSGVHTFPAVLQSSGLYSLSSVVTVPSSSLGTQTYICNVNHKPSNTKVDKKVEPKSCDKTHTCPPCPAPDLLGDDSVFLFPPKPKDTLMISRTPEVTCVVVDVSDEDGEVKFNWYVDGVEVHNAKTKPREEQYNSTYRVVSVLTVLHQDWLNGKEYKCKVSNKALPRPIEKTISKAKGQPREPQVYTLPPSRKELTKNQVSLTCLVKGFYPSDIAVEWESNGQPENNYKTTPPVLDSDGSFFLYSKLTVDKSRWQQGNVFSCSVMHEALHNRYTQKSLSLSP heavy 2: QVQLQESGPGLVKPSETLSLTCAVSGHSISHDHAWSWVRQPPGEGLEWIGFISYSGITNYNPSLQGRVTISRDNSKNTLYLQMNSLRAEDTAVYYCARSLARTTAMDYWGEGTLVTVSSASTKGPSVFPLAPSSKSTSGGTAALGCLVKDYFPEPVTVSWNSGALTSGVHTFPAVLQSSGLYSLSSVVTVPSSSLGTQTYICNVNHKPSNTKVDKKVEPKSCDKTHTCPPCPAPDLLGDDDVFLFPPKPKDTLMISRTPEVTCVVVDVSDEDGEVKFNWYVDGVEVHNAKTKPREEQYNSTYRVVSVLTVLHQDWLNGKEYKCKVSNKALPRPIEKTISKAKGQPREPQVYTLPPSRDELTKNQVSLTCLVKGFYPSDIAVEWESNGQPENNYKTTPPVLDSDGSFFLYSKLTVDKSRWQQGNVFSCSVMHEALHNHYTQESLSLSP light: not shown |  |  |  |  | 0.2 | 752 | 7.7 | 34.3
IL6R-AP002/IL6R-BP257/IL6R-L (antibody, human IgG1, kappa, Heterodimerized antibody (two different H chains, same variable region), S239E in one H chain only) heavy 1: QVQLQESGPGLVKPSETLSLTCAVSGHSISHDHAWSWVRQPPGEGLEWIGFISYSGITNYNPSLQGRVTISRDNSKNTLYLQMNSLRAEDTAVYYCARSLARTTAMDYWGEGTLVTVSSASTKGPSVFPLAPSSKSTSGGTAALGCLVKDYFPEPVTVSWNSGALTSGVHTFPAVLQSSGLYSLSSVVTVPSSSLGTQTYICNVNHKPSNTKVDKKVEPKSCDKTHTCPPCPAPDLLGDDSVFLFPPKPKDTLMISRTPEVTCVVVDVSDEDGEVKFNWYVDGVEVHNAKTKPREEQYNSTYRVVSVLTVLHQDWLNGKEYKCKVSNKALPRPIEKTISKAKGQPREPQVYTLPPSRKELTKNQVSLTCLVKGFYPSDIAVEWESNGQPENNYKTTPPVLDSDGSFFLYSKLTVDKSRWQQGNVFSCSVMHEALHNRYTQKSLSLSP heavy 2: QVQLQESGPGLVKPSETLSLTCAVSGHSISHDHAWSWVRQPPGEGLEWIGFISYSGITNYNPSLQGRVTISRDNSKNTLYLQMNSLRAEDTAVYYCARSLARTTAMDYWGEGTLVTVSSASTKGPSVFPLAPSSKSTSGGTAALGCLVKDYFPEPVTVSWNSGALTSGVHTFPAVLQSSGLYSLSSVVTVPSSSLGTQTYICNVNHKPSNTKVDKKVEPKSCDKTHTCPPCPAPDLLGDDEVFLFPPKPKDTLMISRTPEVTCVVVDVSDEDGEVKFNWYVDGVEVHNAKTKPREEQYNSTYRVVSVLTVLHQDWLNGKEYKCKVSNKALPRPIEKTISKAKGQPREPQVYTLPPSRDELTKNQVSLTCLVKGFYPSDIAVEWESNGQPENNYKTTPPVLDSDGSFFLYSKLTVDKSRWQQGNVFSCSVMHEALHNHYTQESLSLSP light: not shown |  |  |  |  | 0.2 | 657 | 8.3 | 27.7
